From FireProtDB (doi:10.1021/bi00177a023)

B1: Guanyl-specific ribonuclease T1, P00651 (parent)
chain: MMYSKLLTLTTLLLPTALALPSLVERACDYTCGSNCYSSSDVSTAQAAGYQLHEDGETVGSNSYPHKYNNYEGFDFSVSSPYYEWPILSSGDVYSGGSPGADRVVFNENNQLAGVITHTGASGNNFVECT

Variants of: B1
Conditions: Aspergillus oryzae (strain ATCC 42149 / RIB 40); pH 5; Thermal; DSC; Sodium borate-NaOH 10 mM; NaCl 80 mM; reversible: yes; structure 1RN1; whole UniProt chain shown

Variant | Tm [°C] | heat capacity change of unfolding [kcal/mol/K] | unfolding enthalpy (calorimetric) [kcal/mol] | unfolding enthalpy (van 't Hoff) [kcal/mol]
Q51K | 61.2 | 1.14 | 122 | 115

Same assay, conditions: Aspergillus oryzae (strain ATCC 42149 / RIB 40); pH 6; Thermal; DSC; Sodium borate-NaOH 10 mM; NaCl 80 mM; reversible: yes; structure 1RN1; whole UniProt chain shown

Variant | Tm [°C] | heat capacity change of unfolding [kcal/mol/K] | unfolding enthalpy (calorimetric) [kcal/mol] | unfolding enthalpy (van 't Hoff) [kcal/mol]
Q51K | 56.9 | 0.99 | 112 | 110

Same assay, conditions: Aspergillus oryzae (strain ATCC 42149 / RIB 40); pH 6.5; Thermal; DSC; Sodium borate-NaOH 10 mM; NaCl 80 mM; reversible: yes; structure 1RN1; whole UniProt chain shown

Variant | Tm [°C] | heat capacity change of unfolding [kcal/mol/K] | unfolding enthalpy (calorimetric) [kcal/mol] | unfolding enthalpy (van 't Hoff) [kcal/mol]
Q51K | 54 | 1.19 | 109 | 109

Same assay, conditions: Aspergillus oryzae (strain ATCC 42149 / RIB 40); pH 8.6; Thermal; DSC; Sodium borate-NaOH 10 mM; NaCl 80 mM; reversible: yes; structure 1RN1; whole UniProt chain shown

Variant | Tm [°C] | heat capacity change of unfolding [kcal/mol/K] | unfolding enthalpy (calorimetric) [kcal/mol] | unfolding enthalpy (van 't Hoff) [kcal/mol]
Q51K | 46.6 | 1.15 | 97.6 | 102

Same assay, conditions: Aspergillus oryzae (strain ATCC 42149 / RIB 40); pH 9.7; Thermal; DSC; Sodium borate-NaOH 10 mM; NaCl 80 mM; reversible: yes; structure 1RN1; whole UniProt chain shown

Variant | Tm [°C] | heat capacity change of unfolding [kcal/mol/K] | unfolding enthalpy (calorimetric) [kcal/mol] | unfolding enthalpy (van 't Hoff) [kcal/mol]
Q51K | 44 | 1.38 | 94 | 105
